Source: patent US20160052997A1
pKd: −log10 of the molar value. Values joined by “and” are separate entries in the source; they are usually repeats but may differ in a detail not shown here. Identical values can stand only once. Like-named read-outs stand apart in the source and are kept apart here.

Columns and labels:
[1] = biological target: purified recombinant HA protein of H3N2 (A/Wisconsin/67/05) (Influenza A virus A/Wisconsin/67/05 (H3N2))
[2] = biological target: purified recombinant HA protein of H7N7 (A/England/268/96) (Influenza A virus A/England/268/96 (H7N7))
[3] = biological target: purified recombinant HA protein of H7N9 (A/Anhui/1/2013) (Influenza A virus A/Anhui/1/2013 (H7N9))
[4] = biological target: purified recombinant HA protein of H5N1 (A/Vietnam/1203/04) (Influenza A virus A/Vietnam/1203/04 (H5N1))
[5] = biological target: purified recombinant HA protein of H1N1 (A/Ohio/07/09) (Influenza A virus A/Ohio/07/09 (H1N1))
[6] = biological target: purified recombinant HA protein of H3N2 (A/Brisbane/10/07) (Influenza A virus A/Brisbane/10/07 (H3N2))
[7] = biological target: purified recombinant HA protein of H7N9 (A/Shanghai/1/2013) (Influenza A virus A/Shanghai/1/2013 (H7N9))
[8] = biological target: purified recombinant HA protein of H1N1 (A/Texas/05/09) (Influenza A virus A/Texas/05/09 (H1N1))
[9] = biological target: purified recombinant HA protein of H3N2 (A/Philippines/2/82) (Influenza A virus A/Philippines/2/82 (H3N2))
[10] = biological target: purified recombinant HA protein of H3N2 (A/Brisbane/10/07) (Influenza A virus A/Brisbane/10/07 (H3N2)); assay: SPR, Biacore T200, HA captured via anti-6x his tag antibody, 25 C
[11] = biological target: purified recombinant HA protein of H7N9 (A/Shanghai/1/2013) (Influenza A virus A/Shanghai/1/2013 (H7N9)); assay: as above
[12] = biological target: purified recombinant HA protein of H7N7 (A/England/268/96) (Influenza A virus A/England/268/96 (H7N7)); assay: as above
[13] = biological target: purified recombinant HA protein of H5N1 (A/Vietnam/1203/04) (Influenza A virus A/Vietnam/1203/04 (H5N1)); assay: as above
[14] = biological target: purified recombinant HA protein of H3N2 (A/Philippines/2/82) (Influenza A virus A/Philippines/2/82 (H3N2)); assay: as above
[15] = biological target: purified recombinant HA protein of H7N9 (A/Anhui/1/2013) (Influenza A virus A/Anhui/1/2013 (H7N9)); assay: as above
[16] = biological target: purified recombinant HA protein of H1N1 (A/Ohio/07/09) (Influenza A virus A/Ohio/07/09 (H1N1)); assay: as above
[17] = biological target: purified recombinant HA protein of H3N2 (A/Wisconsin/67/05) (Influenza A virus A/Wisconsin/67/05 (H3N2)); assay: as above
[18] = biological target: purified recombinant HA protein of H1N1 (A/Texas/05/09) (Influenza A virus A/Texas/05/09 (H1N1)); assay: as above
[19] = biological target: HA of A/PuertoRico/8/34 (H1N1) virus (Influenza A virus A/PuertoRico/8/34 (H1N1)) (UniProt P03452); assay: cell-based or functional assay
[20] = biological target: HA of A/Perth/16/09 (H3N2) virus (Influenza A virus A/Perth/16/09 (H3N2)); assay: cell-based or functional assay
[21] = biological target: HA of A/ck/HK/G9/97 (H9N2) virus (Influenza A virus A/ck/HK/G9/97 (H9N2)); assay: cell-based or functional assay
[22] = biological target: HA of A/Anhui/1/2013 (H7N9) virus (Influenza A virus A/Anhui/1/2013 (H7N9)); assay: cell-based or functional assay
[23] = biological target: HA of A/Texas/05/2009 (H1N1) virus (Influenza A virus A/Texas/05/2009 (H1N1)); assay: cell-based or functional assay
[24] = biological target: HA of A/Beijing/32/92-R-H3N2 PR8 virus (Influenza A virus A/Beijing/32/92 (H3N2)); assay: cell-based or functional assay
[25] = biological target: HA of A/Solomon Islands/2006 (H1N1) virus (Influenza A virus A/Solomon Islands/3/2006 (H1N1)); assay: cell-based or functional assay
[26] = biological target: HA of A/Ann Arbor/6/60 ca (H2N2) virus (Influenza A virus A/Ann Arbor/6/60 ca (H2N2)); assay: cell-based or functional assay
[27] = biological target: HA of A/Ohio/07/2009 (H1N1) virus (Influenza A virus A/Ohio/07/2009 (H1N1)); assay: cell-based or functional assay
[28] = biological target: HA of A/Shanghai/2/2013 (H7N9) virus (Influenza A virus A/Shanghai/2/2013 (H7N9)); assay: cell-based or functional assay
[29] = biological target: HA of A/Ohio/83 (H1N1) virus (Influenza A virus A/Ohio/83 (H1N1)); assay: cell-based or functional assay
[30] = biological target: HA of Anhui/1/05 (H5N1) virus (Influenza A virus A/Anhui/1/05 (H5N1)); assay: cell-based or functional assay
[31] = biological target: HA of A/Sydney/5/97 (H3N2) virus (Influenza A virus A/Sydney/5/97 (H3N2)); assay: cell-based or functional assay

Sequence of CT149 (antibody) (VH): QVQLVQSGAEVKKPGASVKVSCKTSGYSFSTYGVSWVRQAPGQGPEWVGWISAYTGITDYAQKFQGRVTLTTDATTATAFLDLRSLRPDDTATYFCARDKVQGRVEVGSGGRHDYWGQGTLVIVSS
Sequence of CT149 (antibody) (VL): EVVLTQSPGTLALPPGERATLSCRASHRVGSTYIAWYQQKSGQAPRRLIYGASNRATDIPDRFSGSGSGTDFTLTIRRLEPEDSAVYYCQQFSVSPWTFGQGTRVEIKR

CT149 (antibody)
pKd [1]: 7.05
pKd [2]: 8.36
pKd [3]: 9.74
pKd [4]: 8.53
pKd [5]: 7.29
pKd [6]: 8.74
pKd [7]: 9.83
pKd [8]: 7.47
pKd [9]: 10.34
pKd [10]: 8.75 and 8.73
koff [10]: 0.000316 s⁻¹ and 0.000319 s⁻¹
kon [10]: 179000 M⁻¹ s⁻¹ and 173000 M⁻¹ s⁻¹
pKd [11]: 9.85 and 9.81
koff [11]: 0.0028 s⁻¹ and 0.00285 s⁻¹
kon [11]: 1.97e+07 M⁻¹ s⁻¹ and 1.83e+07 M⁻¹ s⁻¹
pKd [12]: 8.36 and 8.35
koff [12]: 0.00176 s⁻¹ and 0.0018 s⁻¹
kon [12]: 401000 M⁻¹ s⁻¹ and 406000 M⁻¹ s⁻¹
pKd [13]: 8.53
koff [13]: 0.00391 s⁻¹ and 0.00386 s⁻¹
kon [13]: 1.32e+06 M⁻¹ s⁻¹
pKd [14]: 10.30 and 10.39
koff [14]: 1.47e-05 s⁻¹ and 1.17e-05 s⁻¹
kon [14]: 292000 M⁻¹ s⁻¹ and 285000 M⁻¹ s⁻¹
pKd [15]: 9.78 and 9.70
koff [15]: 0.00326 s⁻¹ and 0.00316 s⁻¹
kon [15]: 1.98e+07 M⁻¹ s⁻¹ and 1.57e+07 M⁻¹ s⁻¹
pKd [16]: 7.29
koff [16]: 0.0379 s⁻¹ and 0.0387 s⁻¹
kon [16]: 746000 M⁻¹ s⁻¹ and 747000 M⁻¹ s⁻¹
pKd [17]: 7.07 and 7.04
koff [17]: 0.00723 s⁻¹ and 0.00745 s⁻¹
kon [17]: 84100 M⁻¹ s⁻¹ and 81600 M⁻¹ s⁻¹
pKd [18]: 7.47
koff [18]: 0.0558 s⁻¹ and 0.0562 s⁻¹
kon [18]: 1.66e+06 M⁻¹ s⁻¹ and 1.65e+06 M⁻¹ s⁻¹

CT-P27
EC50, microneutralization test [19]: 0.67 µg/mL
EC50, microneutralization test [20]: 3.99 µg/mL
EC50, microneutralization test [21]: 5.09 µg/mL
EC50, microneutralization test (Contract Lab A) [22]: 2.38 µg/mL
EC50, microneutralization test [23]: 2.05 µg/mL
EC50, microneutralization test [24]: 3.1 µg/mL
EC50, microneutralization test [25]: 0.27 µg/mL
EC50, microneutralization test [26]: 12.7 µg/mL
EC50, microneutralization test [27]: 0.29 µg/mL
EC50, microneutralization test (Contract Lab A) [28]: 3.55 µg/mL
EC50, microneutralization test (Contract Lab B) [28]: 13.1 µg/mL
EC50, microneutralization test [29]: 0.73 µg/mL
EC50, microneutralization test [30]: 8.02 µg/mL
EC50, microneutralization test [31]: 6.53 µg/mL
